Experimental data as given in the supplement of paper PMC12042874.
± gives the uncertainty stated by the source.

Experiment: amyloid nucleation score (Sup35N fusion, yeast selection) (log enrichment); library NNK3; higher = more nucleation; inactive = no reads after selection
Procedure, shortened: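 In psi-negative yeast, Sup35N fusions carrying peptides of 20 random codons were induced with 100 μM copper sulfate for 24 hours. The cells then grew 7 days at 30°C on medium lacking adenine and uracil, and plasmid inserts from input and output were Illumina-sequenced, excluding sequences with under 100 input reads. Nucleation score is the DiMSum log enrichment of output over input reads, centred on the mode score of non-aggregating sequences.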
For SSTGSLIPQPAFSYFCTATP, the amyloid nucleation score was “inactive”. TLNIFVVSFNDYWVSVIIKD gave an amyloid nucleation score of 2.46 ± 0.066. With FDNKFKHSYYDTLAA the amyloid nucleation score was “inactive”. For SYVDLYVGWLNSWMYVMRSA, the amyloid nucleation score was “inactive”. In the case of FFLAASPISRNWWSSSLGHS, the amyloid nucleation score is reported as “inactive”. With CVCPDNDSPCDLGWVRRGNR the amyloid nucleation score was “inactive”. With NTVLATYRTNAVFGKTTHYN the amyloid nucleation score was “inactive”. For FVQDFSTFTAGWCL, the amyloid nucleation score was “inactive”. For CIGTI, the amyloid nucleation score was “inactive”. For CQFFQFDLNYEFKLVSRAHK, the amyloid nucleation score was “inactive”. In the case of SKLFVSVSTTIYFEEPSPA, the amyloid nucleation score is reported as “inactive”. With RGICGNQLCRVMPLLNPHGC the amyloid nucleation score was “inactive”. With FRYVWFCYCMNVERVENVRL the amyloid nucleation score was “inactive”. In the case of WQLEKIDDDYLRVTVDEPSE, the amyloid nucleation score is reported as “inactive”. With KFNVFPIHGALWTCSVSAYH the amyloid nucleation score was “inactive”. In the case of RSALILAWHCRSMSLQDAEG, the amyloid nucleation score is reported as “inactive”. For FISLPWYCQLVMVRDTSIIK, the amyloid nucleation score was “inactive”. In the case of FTSEAPIKVQHWVYTSLPSV, the amyloid nucleation score is reported as “inactive”. In the case of AYWSFFPWGLYARLPGTPVV, the amyloid nucleation score is reported as “inactive”. For YINSFCTRKSYIY, the amyloid nucleation score was “inactive”. In the case of WLVRMN, the amyloid nucleation score is reported as “inactive”. In the case of FPDLVVYSS, the amyloid nucleation score is reported as “inactive”. For FLCLMTTKTKCNF, the amyloid nucleation score was “inactive”. In the case of SCGACLKEGRSG, the amyloid nucleation score is reported as “inactive”. In the case of TITFSWLAYAVGMQPDNNEV, the amyloid nucleation score is reported as 1.26 ± 0.12. With IIHLENMPICQGALIDGLAL the amyloid nucleation score was “inactive”. In the case of QSLSVEH, the amyloid nucleation score is reported as “inactive”. Work on AWRKPCWGRVNYFLYIVGAG yielded an amyloid nucleation score of 2.33 ± 0.088. Work on INLGLPVWSSIIFFNQSHNL yielded an amyloid nucleation score of 0.679 ± 0.14. In the case of NCLFWSEVRFHVMCFCDWLL, the amyloid nucleation score is reported as “inactive”. For VELTC, the amyloid nucleation score was “inactive”. For SEIKYSYSYMRFLNCTETSN, the amyloid nucleation score was “inactive”. With LALWFRGPLLLLSSLI the amyloid nucleation score was “inactive”. KCIQWTGRDAYFEICYKQLD showed an amyloid nucleation score of 1.12 ± 0.11. With MLVVWLFMWFIHINKRWDGA the amyloid nucleation score was “inactive”. For LVWSSSEVVFFA, the amyloid nucleation score was “inactive”. With LDWDFGHDRVRFPERHT the amyloid nucleation score was “inactive”. For GCLDQFGCGGTPVKVFATNV, the amyloid nucleation score was -1.39 ± 2.5. In the case of GNFCDCEDFHKGSAGLRWSG, the amyloid nucleation score is reported as “inactive”. In the case of DLFSFYVGCLKSHPENPSLM, the amyloid nucleation score is reported as “inactive”. For RTDFHPLYLILWNQRK, the amyloid nucleation score was 1.9 ± 0.098. With NWYDSWRVFAQNKDCSLWA the amyloid nucleation score was “inactive”. With EQLISTSPLCVFIGFLVVLY the amyloid nucleation score was “inactive”. With KTYFRHTVRNTSSV the amyloid nucleation score was 1.52 ± 0.11. In the case of RFMQWGIFS, the amyloid nucleation score is reported as “inactive”. In the case of RLHTMWTYP, the amyloid nucleation score is reported as “inactive”. In the case of KIFVSFNKSKLEVHPPLKVI, the amyloid nucleation score is reported as “inactive”. Substance RWNGFVVNTFINTLGRLTKC has an amyloid nucleation score of -0.578 ± 1. In the case of SLMYKCLINSILY, the amyloid nucleation score is reported as 1.97 ± 0.051. Work on WHKKLGYTSFNRKLGFMASG yielded an amyloid nucleation score of 0.101 ± 0.45. In the case of VWLRGDVLGMTLHGCSIVTR, the amyloid nucleation score is reported as “inactive”. For LNPLPQRLYSPCSLKFCNDG, the amyloid nucleation score was “inactive”. In the case of FAICSYANAEVSWKDGESAY, the amyloid nucleation score is reported as “inactive”. In the case of SPYTVQ, the amyloid nucleation score is reported as “inactive”. With SSCKDPRRKE the amyloid nucleation score was “inactive”. For SFYIVVRWMYIRFVDQYLIY, the amyloid nucleation score was “inactive”. With SADNLDKFRLEMPVSLVRLN the amyloid nucleation score was “inactive”. With WSYHATTPHLRRYRLERSSN the amyloid nucleation score was “inactive”. In the case of GSFSCWYCEVVNVV, the amyloid nucleation score is reported as “inactive”. In the case of SHVKYNNMW, the amyloid nucleation score is reported as “inactive”. For VDTKFSISYTGKTC, the amyloid nucleation score was “inactive”. In the case of IVPAWLFGV, the amyloid nucleation score is reported as “inactive”. With VYWTEWTCMDIDGIQFLVNV the amyloid nucleation score was “inactive”. For VSHFSSRHKRTEVRSGSPQT, the amyloid nucleation score was “inactive”.
